Experimental findings from patent US5395750, “Methods for producing proteins which bind to predetermined antigens” (Hoffmann-La Roche Inc., dated 1995) are described below.

The target in the test is HIV-1 tat protein (HIV-1, UniProt P04608). Kind of test: phage binding to tat coated magnetic beads; TR5 also selected in 4 separate screening experiments.

B1: phage TR5 (anti-tat Fv, synthetic single chain antibody displayed on FUSE5 phage) (scFv)
scFv: EVQLVESGRGLVQPGGSLRLSCAASGFTFSHFLVAWVRQAPGKGLEWVATYSMISRARVLDGSFNGRYTISRDDSKNTLYLQMNSLRAEDTAVYYCARIGSTHTIPRLSQYGGQGTLVTVSSGGGGSGGGGSGGGGSDIQMTQSPSSLSASVGDRVTITCKLRGPQPHAITWYQQKPGKAPKLLIYYDGQTLVGVPSRFSGSGSGTDFTPTISSLEPEDFATYYCTPTHKIDSPFGQGTKVEIKRT
With B1, the binding result is “binds”.
